Drawing on paper PMC5318940, this text covers histone MIC for the GAS Δemm1 mutant with exogenous 10 μM recombinant NT fragment (rNT) and gold particles per bacterium (gold-particles per bacterium) for two substances.

Assay [1] addresses histone H2A (bovine (calf thymus)) (UniProt P0C0S9).
The target in assay [2] is M1 protein on the surface of live GAS M1T1 5448 wild type (group A Streptococcus (endogenous in strain M1T1 5448)) (UniProt Q99XV0). The assay is described as follows: immunogold transmission electron microscopy; bacteria with 31.25 μg/mL histone H2A, 30 min at 37 °C, washed, fixed with 2% PFA; anti-histone H2A antibody and 15 nm immunogold secondary antibody; particles counted on >20 bacteria.

Take “M1 protein fragment A+B (residues 42-194), recombinant NT fragment (from UniProt Q99XV0 42-194) (domain or fragment)”: the histone MIC for the GAS Δemm1 mutant with exogenous 10 μM recombinant NT fragment (rNT) in assay [1] turned out to be 2 fold.
The substance “histone H2A (from UniProt P0C0S9 1-130) (natural protein)” registered a gold particles per bacterium (gold-particles per bacterium) in assay [2] of more than 30.
